Here are results for 1 substance from publication PMC12246617, “Cryo-EM structures reveal the PP2A–B55α and Eya3 interaction that can be disrupted by a peptide inhibitor” (The Journal of Biological Chemistry, 2025).

As a reminder, the Kd is the concentration at which binding is half-saturated. Low values mean a tighter complex, high ones a looser complex.

The experiment deals with His-hB55 (human PP2A regulatory subunit B55α) (human) (UniProt P63151). Put plainly: MST; His-B55 labelled with RED-Tris-NTA dye, added to serial dilutions of mEya3 (wild type or mutant) in PBS with 0.05% Tween-20; Monolith NT.115 Pico.
Chain of His-hB55 (human PP2A regulatory subunit B55α) (human) (P63151 whole entry): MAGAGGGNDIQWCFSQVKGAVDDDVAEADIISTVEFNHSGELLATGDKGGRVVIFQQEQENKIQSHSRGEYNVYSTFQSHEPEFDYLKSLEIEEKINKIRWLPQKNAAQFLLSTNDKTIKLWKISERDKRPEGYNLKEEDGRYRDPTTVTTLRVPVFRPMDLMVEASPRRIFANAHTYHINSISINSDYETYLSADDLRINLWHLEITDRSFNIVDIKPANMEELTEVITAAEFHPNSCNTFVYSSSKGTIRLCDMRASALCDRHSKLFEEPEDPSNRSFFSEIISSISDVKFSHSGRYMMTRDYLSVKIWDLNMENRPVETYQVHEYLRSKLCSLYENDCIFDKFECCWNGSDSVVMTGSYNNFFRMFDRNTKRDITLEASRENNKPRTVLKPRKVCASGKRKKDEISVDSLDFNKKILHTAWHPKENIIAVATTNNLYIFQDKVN

Consider “mouse Eya3 (mEya3), wild type (from UniProt P97480 1-510) (natural protein)”, for which the Kd was found to be 1040 nM.
